The record followed here is patent publication US20230126400A1 (Alector, published 2023).

Some results are limits rather than exact numbers.

For test [1], the target named is T1, human MS4A4A ECL2 peptide (amino acid residues 159-179), free (human).
T1 construct: synthetic peptide; also called huMS4A4A-ELC2 free-peptide
T1 peptide: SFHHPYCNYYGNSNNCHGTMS
Kind of test: peptide ELISA. The method, then:
(§1) Briefly, 96-well polystyrene plates were coated with 2 or 10 m/ml of synthetic free or BSA-conjugated peptides in coating buffer (0.05M carbonate buffer, pH9.6, Millipore Sigma Cat#C3041) overnight at 4° C. Coated plates were then blocked with ELISA diluent (PBS+0.5% BSA+0.05% Tween20) for 1-hour, washed 3×300 μL in PBST (PBS+0.05% Tween20, Thermo Cat#28352), and then the antibodies were added to the plate (50 μl/well). After 30 mins incubation (room temperature, with shaking), the plates were washed 3×300 μL in PBST. […] After a final set of washes (3×300 μL in PBST), 50 μL of TMB substrate (BioFx Cat#TMBW-1000-01) was added and the reaction was then quenched after 5-10 mins with 50 μL of stop solution (BioFx Cat#BSTP-1000-01). The quenched reaction wells were detected for absorbance at 650nm with a BioTek Synergy Microplate Reader using GENS 2.04 software.
(An ELISA detects its analyte on a solid surface through an enzyme-linked reagent.)

Test [2] has as its target T2, human MS4A4A ECL1 peptide (amino acid residues 86-98) (human).
T2 construct: synthetic peptide
T2 peptide: CMASNTYGSNPIS
The experiment in a line: peptide ELISA. The method, then: as §1

In test [3] the target is T3, human MS4A4A (human, UniProt Q96JQ5 1-239). The experiment in a line: FACS, HEK293, supernatant. The method, then: (§2) Positive clones identified above were expanded and then rescreened for specificity against HEK293 cells overexpressing human MS4A4A or cyno MS4A4A and parental HEK293 cells. These experiments were performed using supernatants from hybridoma clones which had undergone further expansion after initial selection. Briefly, previously prepared, cryopreserved transiently-transfected cells were labeled with LIVE/DEAD Fixable Aqua Dead Cell Stain Kit (ThermoFisher Scientific L34957) on ice for 30 minutes. After a wash with PBS, 2×10⁵ cells were aliquoted per well in 96-well U-bottom plates and incubated with 50 μl of culture supernatant on ice for 30 minutes. […] Following this secondary incubation, the cells were again washed twice with ice-cold FACS buffer and resuspended in a final volume of 200 μl of FACS buffer. Analysis was performed on a FACS Canto system (BD Biosciences), with sort gates drawn to exclude dead (Aqua-positive) cells. Positive clones (fold change of 1.8 or greater) were carried forward for further testing.
On the technique in general: In flow cytometry, cells or beads pass a laser one at a time.

Test [4] deals with T4, cynomolgus (cyno) MS4A4A (cynomolgus).
T4 construct: also called cy4A; Cyno 4A
Kind of test: FACS, HEK293, supernatant. The procedure: as §2

Test [5] deals with T5, human MS4A6A ECL1 peptide (amino acid residues 68-85) (human).
T5 peptide: SASFSPNFTQVTSTLLNS
Kind of test: array SPR. The method, then:
(§3) Binding kinetic characterization of the anti-MS4A4A antibodies to MS4A4A ECL1 and ECL2 and to MS4A6A ECL1 and ECL2 peptides was performed by Carterra (South San Francisco, Calif.) using a proprietary array Surface Plasmon Resonance (SPR) instrument (MX-96) as follows. Antibodies were captured onto a CMD500D chip (Xantec # SPMX CMD500D) using the Continous Flow Microspotter (CFM). First, the chip was activated with 100 mM MES pH 5.5, 100 μL EDC (133 mM final), 100 μL of S-NHS (33.3 mM final), for 7 minutes. […] Anti-MS4A4A hydridoma supernatant or purified anti-MS4A4A antibodies were diluted in HBS-EP+ buffer (Teknova Cat # H8022) and then printed as duplicates with a 20 minute and a 5-minute print from the same sample solution.
(§4) These were then injected on the chip for five minutes, followed by a seven-minute dissociation period at 8 uL per second in a non-regenerative kinetic series. Duplicate measurements for each anti-MS4A4A antibody were taken to ensure reproducibility. Association rates (Kon) and dissociation rates (Koff) were calculated using a single one-to-one Langmuir binding model. The equilibrium dissociation constant (KD) was calculated as the ration of Koff/Kon.

The target of test [6] is T6, human MS4A6A ECL2 peptide (amino acid residues 138-185) (human).
T6 peptide: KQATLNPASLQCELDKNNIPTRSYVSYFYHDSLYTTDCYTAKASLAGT
Kind of test: array SPR. The procedure:
as §3, §4

Test [7] concerns the target T2, human MS4A4A ECL1 peptide (amino acid …). The experiment in a line: ELISA, hybridoma supernatant. The procedure: as §1, with “1-10 μg/ml” for “2 or 10 m/ml”, “C3041)” for “Cat#C3041)”, “[…]).” for “μl/well).”, “TMBW-1000-01)” for “Cat#TMBW-1000-01)”, “BSTP-1000-01).” for “Cat#BSTP-1000-01).”, “650 nm” for “650nm”
Test [8] addresses T7, BSA-conjugated human MS4A4A ECL2 peptide (amino acid residues 159-179) (human, conjugated to BSA (site not stated)).
T7 construct: also called MS4A4A-ECL2 BSA conjugated peptide; BSA-MS4A4A-ELC2 peptide
T7 peptide: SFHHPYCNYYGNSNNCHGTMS
The experiment in a line: ELISA, hybridoma supernatant. The method, then: as §1, with “1-10 μg/ml” for “2 or 10 m/ml”, “C3041)” for “Cat#C3041)”, “[…]).” for “μl/well).”, “TMBW-1000-01)” for “Cat#TMBW-1000-01)”, “BSTP-1000-01).” for “Cat#BSTP-1000-01).”, “650 nm” for “650nm”

Test [9] deals with T3, human MS4A4A. Kind of test: FACS, U937 cells, supernatant. The procedure:
(§5) Positive clones identified in Example 22 above were expanded and then rescreened for specificity against U937, K562, and/or 300.19 cells stably overexpressing human MS4A4A or cyno MS4A4A and parental U937, K562, and/or 300.19 cells. These experiments were performed using supernatants from hybridoma clones which had undergone further expansion after initial selection. Briefly, stably transfected cells were labeled with LIVE/DEAD Fixable Aqua Dead Cell Stain Kit (ThermoFisher Scientific Cat#L34957) on ice for 30 minutes. […] 2×10⁵ cells were aliquoted per well in 96-well U-bottom plates and incubated with 50 μl of culture supernatant on ice for 30 minutes. […] Following this secondary incubation, the cells were again washed twice with ice-cold FACS buffer and resuspended in a final volume of 200 μl of FACS buffer. Analysis was performed on a FACS Canto system (BD Biosciences), with gates drawn to exclude dead (Aqua-positive) cells.
(§6) The APC ratio was calculated for each antibody as follows. […] For cell lines overexpressing human MS4A4A (h4A) or cyno MS4A4A (cy4A), the ration was calculated by comparing the binding measured to the binding observed on the corresponding parental cell lines.

For test [10], the target named is T3, human MS4A4A. The experiment in a line: FACS, K562 cells, supernatant. The method, then:
as §5, §6

Test [11] concerns the target T1, human MS4A4A ECL2 peptide (amino acid …). Kind of test: peptide ELISA, supernatant.
For test [12], the target named is T4, cynomolgus (cyno) MS4A4A. The experiment in a line: FACS, 300.19 cells, supernatant. The method, then: as §5, §6

B1: anti-MS4A4A antibody 4A-25 (antibody, V domains shown)
VH: QVTLKESGPGILQPSQTLSLTCSFSGFSLRTSDMGVGWVRQPSGEGLEWLADIWWDDNKYYNPSLKSRLTISKDTSSNQVFLKITSVDTADTATYYCARRANYGNLFDYWGQGTAVTVSS
VL: DIVMTQSLKFMSTSVGDRVSITCKASQNVRSAVAWYQQKPGQSPKVLIYWASNRHTGVPDRFTGSGSGTDFTLTISNVQSEDLADYFCLQHWNYLTFGSGTKLEIK
notes: purified murine antibody
For the molecule B1, the figures for the binding result in test [1] and in [2] were “binds” and “no binding”, respectively.

B2: anti-MS4A4A antibody 4A-17 (antibody, V domains shown)
VH: QVQLQQSAAELMKPGASVKLSCKATGYTFTGYWIEWLKQRPGHGLEWIGEILPGIGNTKYSEKFKGKATFTADTSSNTAYMQLSSLTTEDSAIYYCARSLLRAMDYWGQGTSVTVSS
VL: QIVLTQSPAIMSASPGEKVTMTCSAISSISYMHWYQLKPGTSPKRWIYDTSKLASGVPARFSGSGSGTSYSLTISSMEAEDAATYYCHQRSSYPYTFGGGTKLEIK
notes: murine hybridoma antibody
Turning to B2, the “Human 4A:parental cell ratio” value with human MS4A4A [3] was found to be 4.83 ratio. Besides, the “Cyno 4A:parental cell ratio” value in the test with cynomolgus (cyno) MS4A4A [4] turned out to be 1.67 ratio. Besides, the binding result is on record as “no binding (tested: 2000 nM)” in [5], “no binding (tested: 2000 nM)” in test [6], “no binding” in test [7] and “no binding” in [8].

B3: anti-MS4A4A antibody 4A-208 (murine) (antibody, V domains shown)
VH: EVHLQQSGAEVVKPGASVKLSCTASGFNIKDTYIHWVMQRPEQGLEWIGRIDPANDNTKYDPKFQGKATITSDTSSNTAYLHLSSLTSEDTAVYYCARIAYGSWALDYWGQGTSVTVSS
VL: DIVMTQSQKFMSTSVGDRVIVTCKASQNVDTNVAWYQQKPGQSPKTLIYSASFRYSGVPDRFTGSGSGTDFTLSISNVQSEDLAEYFCQQYNSYPWTFGGGTKLEIK
notes: murine hybridoma antibody
Regarding B3, the “fold increase in MFI” value in the test with human MS4A4A [9], in the test with human MS4A4A [10] and with cynomolgus (cyno) MS4A4A [12] was above 2 fold each time. For the same molecule, the binding result in test [2] and in test [11] was “no binding” in each case.

B4: anti-MS4A4A antibody 4A-12 (antibody, V domains shown)
VH: QVQLQQSGAELAQPGASVKMSCKASGYTFSSYWMYWVKQGPGQGLEWIGYINPGTGYTEYNQKFKDKATLTADKSSSTAYMQLSSLTSEDSAVYYCARFYYGSPYYYAMDYWGQGTSVTVSS
VL: DIVMTQSQKFMSTSVGDRVTFTCKASQSVDTDVAWYQQKPGQSPKLLIYSASNRYTGVPDRFTGSGSGTDFTLTISNVQSEDLADYFCHQYNSYPLTFGAGTKLELK
notes: murine hybridoma antibody
Turning to B4, the “Human 4A:parental cell ratio” value with human MS4A4A [3] stood at 9.58 ratio. Moreover, the “Cyno 4A:parental cell ratio” value with cynomolgus (cyno) MS4A4A [4] turned out to be 3.96 ratio. Besides, the binding result in [5] is “no binding (tested: 2000 nM)”; in test [6], “no binding (tested: 2000 nM)”; in test [7], “no binding”; in [8], “no binding”.

B5: anti-MS4A4A antibody 4A-202 (murine) (antibody, V domains shown)
VH: QVQLQQSGAELARPGASVKLSCKASGYTFTNYWMQWVKQRPGQGLEWIGATHPGHGDTRYTQKFKGKATLSADKSSSTAYMQLSNLASEDSAVYYCAREEVYYGFRSYWYFDVWGAGTTVTVSS
VL: not shown
notes: murine hybridoma antibody
Consider B5, for which the binding result in test [1] is recorded as “binds”; in [2] it was “no binding”.

B6: anti-MS4A4A antibody 4A-205 (murine) (antibody, V domains shown)
VH: EVQLVESGGDLVKPGGSLKLSCAASGFTFSHYGMSWVRQTPDKRLDWVATIGRDGIHTDYRDSVKGRFTISRDNAKNTLYLQMGSLKSEDSAIFYCARHLYYGLYYSMDYWGQGTSVTVSS
VL: ENVLTQSPAIMSASPGEKVTMTCSASSSVSFMYWYQQKSSTSPKLWIYDTSKLASGVPGRFSGSGSGNSYSLTISSMEAEDVATYYCFQGSGYPLTFGSGTKLEIK
notes: murine hybridoma antibody
For B6, the “fold increase in MFI” value with human MS4A4A [9], in the test with human MS4A4A [10] and in the test with cynomolgus (cyno) MS4A4A [12] was above 2 fold throughout. Besides, the binding result in test [2] and in test [11] was “no binding” each time.

B7: anti-MS4A4A antibody 4A-5 (antibody, V domains shown)
VH: EVKVEESGGGLVQPGGSMKLSCAASGFTFSDAWMDWVRQSPEKGLEWVAEIRSKTNSHATYYAESVKGRFTISRDDSKSSVYLQMNSLRAEDTGIYYCTVDYYGIFWGQGTLVTVSS
VL: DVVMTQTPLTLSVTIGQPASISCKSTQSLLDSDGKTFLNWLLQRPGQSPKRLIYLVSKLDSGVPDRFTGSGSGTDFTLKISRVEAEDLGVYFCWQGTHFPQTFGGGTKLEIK
notes: murine hybridoma antibody
As for B7, the “Human 4A:parental cell ratio” value in the test with human MS4A4A [3] was 27.3 ratio. Also, the “Cyno 4A:parental cell ratio” value with cynomolgus (cyno) MS4A4A [4] was 8.49 ratio. Also, the binding result in [5] is “no binding (tested: 2000 nM)”; in test [6] it was “no binding (tested: 2000 nM)”; in [7], “no binding”; in test [8], “no binding”.
